From patent US20240368223A1
Bridges are numbered along the chain shown (N, C = ends). Primed or numbered codes have the meaning given here. The star is where a group is joined. Biotin = O=C1N[C@H]2[C@H](CS[C@H]2CCCCC(=O)*)N1; PEG4′ = amino-PEG4 spacer

Experiments:
[1] = molecular target: human IgG (Chugai Pharmaceutical Co., Ltd.) (human); assay: SPR, BIAcore T200, IgG immobilised; 1:1 binding fit
[2] = molecular target: human IgG (Chugai Pharmaceutical Co., Ltd.) (human); assay: SPR, BIAcore T200, IgG immobilised; equilibrium value

Kd [1]: 9.1 nM
Kd [2]: 10 nM
Binder: {Biotin-PEG4′}-GPDCAYHRGELVWCTFH-NH2 (disulfide 4-14) [Type I IgG-binding peptide …-NH2]
